Test results: article doi:10.1101/2021.06.15.448513

Molecular target: PaPlaB, phospholipase B of Pseudomonas aeruginosa PA01 (gene pa2927) (P. aeruginosa PA01)
Test: SEC-MALS

In the case of “PaPlaB, phospholipase B of Pseudomonas aeruginosa PA01 (gene pa2927) (enzyme)”, the stoichiometry N is reported as 7.
